Experimental data: patent US20060099210

Key:
[1] = tested on: GST-2E11 (fusion protein between GST and a KCNQ2-15b polypeptide comprising exons 13, 14 and 15b; encoded by pGEX-2TK-2E11)
[2] = tested on: GST (glutathione S-transferase expressed from the pGEX2TK plasmid; negative control) [GST: P08515]
GST (glutathione S-transferase expressed from the pGEX2TK plasmid; negative control) [GST: P08515], sequence (P08515 whole entry): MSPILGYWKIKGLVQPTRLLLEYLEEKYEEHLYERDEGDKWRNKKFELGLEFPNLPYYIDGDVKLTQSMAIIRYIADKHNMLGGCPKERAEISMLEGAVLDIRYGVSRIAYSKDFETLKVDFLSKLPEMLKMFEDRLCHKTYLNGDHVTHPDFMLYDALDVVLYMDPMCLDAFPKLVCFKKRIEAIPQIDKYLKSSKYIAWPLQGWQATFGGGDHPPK

GST-2E11 (fusion protein between GST and a KCNQ2-15b polypeptide comprising exons 13, 14 and 15b; encoded by pGEX-2TK-2E11), sequence (chain, as listed by the source): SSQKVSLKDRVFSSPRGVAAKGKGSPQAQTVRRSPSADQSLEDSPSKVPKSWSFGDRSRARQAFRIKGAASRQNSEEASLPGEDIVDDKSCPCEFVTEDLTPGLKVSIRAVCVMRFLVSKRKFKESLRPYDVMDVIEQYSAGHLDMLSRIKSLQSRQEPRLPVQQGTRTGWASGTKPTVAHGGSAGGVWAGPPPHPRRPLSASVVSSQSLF

| Substance | in vitro phosphorylation with [32P]γATP, SDS-PAGE and autoradiography [1] | in vitro phosphorylation with [32P]γATP, SDS-PAGE and autoradiography (negative control with GST instead of GST-2E11) [2] | in vitro phosphorylation in the presence of 5 µg of CREB phosphopeptides as competitor [1] |
| --- | --- | --- | --- |
| Protein Kinase A Catalytic Subunit (PKA from bovine heart, Sigma) | a band located at a position corresponding to a protein of a size of about 45 kD did appear | No bands appeared in the three lines corresponding to the negative controls | – |
| recombinant GSK-3β kinase (New England Biolabs) | a band located at a position corresponding to a protein of a size of about 45 kD did appear | No bands appeared in the three lines corresponding to the negative controls | A band did still appear at a position corresponding to the size of GST-2E11, but the intensity of the band was very significantly lower |
